This is an account of results in US6746838.

The data set deals with anti-ras optimised three-finger peptide (F1 +3 Asn) finger 1 helix position +3 S->N (synthetic). The experiment in a line: ELISA. As to conditions: apparent Kd; phage-displayed; equal to wild-type Zif268 DBD; Zn. In general terms: An ELISA detects its analyte on a solid surface through an enzyme-linked reagent.

“GTGGTGGGCGCCGTCGGTGTGGGCAAG (double strand) [EJ (G12V) mutant H-ras site]”: the Kd came to 3 nM.
